In this test the target is vitronectin (UniProt P04004).

Among the data in paper PMC4172472 are detachment of adherent WM266 cells from vitronectin-coated plates by the anti-αvβ3 antibody LM609 (10 µg/mL), 2 h values, retold here.

Chain of UniProt P04004 (P04004 20-478): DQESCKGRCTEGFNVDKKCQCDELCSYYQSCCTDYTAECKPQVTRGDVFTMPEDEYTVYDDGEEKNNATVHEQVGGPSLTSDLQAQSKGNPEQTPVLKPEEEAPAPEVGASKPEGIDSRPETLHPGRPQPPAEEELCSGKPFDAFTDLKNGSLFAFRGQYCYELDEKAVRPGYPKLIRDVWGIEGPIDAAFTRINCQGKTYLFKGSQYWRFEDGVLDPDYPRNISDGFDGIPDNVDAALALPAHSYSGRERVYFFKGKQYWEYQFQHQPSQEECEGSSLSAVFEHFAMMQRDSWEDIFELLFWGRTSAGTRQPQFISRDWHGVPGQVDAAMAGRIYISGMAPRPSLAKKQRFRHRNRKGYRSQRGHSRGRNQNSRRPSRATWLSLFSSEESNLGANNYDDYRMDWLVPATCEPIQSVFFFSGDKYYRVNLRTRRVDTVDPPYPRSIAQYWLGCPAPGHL

As to “αvβ3 integrin (from UniProt P06756 31-1048; P05106 27-788) (receptor)”, the detachment of adherent WM266 cells from vitronectin-coated plates by the anti-αvβ3 antibody LM609 (10 µg/mL), 2 h was determined as 50%.
